B1: GLS3000 V94P one-amino acid altered one-arm antibody (CE115HA000-pE22Hh / Kn010G3 / GLS3000 V94P-kappa) (antibody, human IgG1, kappa, L234A L235A, N297A, name in Kabat numbering)
heavy: QVQLVESGGGVVQPGRSLRLSCAASGFTFSNAWMHWVRQAPGKGLEWVAQIKAKSNNYATYYAESVKGRFTISRDDSKNSLYLQMNSLKTEDTAVYYCRYVHYGAYYGVDAWGQGTTVTVSSASTKGPSVFPLAPSSKSTSGGTAALGCLVKDYFPEPVTVSWNSGALTSGVHTFPAVLQSSGLYSLSSVVTVPSSSLGTQTYICNVNHKPSNTKVDKKVEPKSCDKTHTCPPCPAPEAAGGPSVFLFPPKPKDTLMISRTPEVTCVVVDVSHEDPEVKFNWYVDGVEVHNAKTKPREEQYASTYRVVSVLTVLHQDWLNGKEYKCKVSNKALPAPIEKTISKAKGQPREPQVYTLPPSRCELTKNQVSLSCAVKGFYPSDIAVEWESNGQPENNYKTTPPVLDSDGSFFLVSKLTVDKSRWQQGNVFSCSVMHEALHNHYTQKSLSLSPDYKDDDDK
chain: EPKSSDKTHTCPPCPAPELLGGPSVFLFPPKPKDTLMISRTPEVTCVVVDVSHEDPEVKFNWYVDGVEVHNAKTKPREEQYNSTYRVVSVLTVLHQDWLNGKEYKCKVSNKALPAPIEKTISKAKGQPREPQVCTLPPSRDELTKNQVSLWCLVKGFYPSDIAVEWESNGQPENNYKTTPPVLDSDGSFFLYSKLTVDKSRWQQGNVFSCSVMHEALHNRYTQKSLSLSP
light: DIVMTQSPLSLPVTPGEPASISCRSSQSLVHSNRNTYLHWYQQKPGQAPRLLIYKVSNRFSGVPDRFSGSGSGTDFTLKISRVEAEDVGVYYCGQGTQPPYTFGQGTKLEIKRTVAAPSVFIFPPSDEQLKSGTASVVCLLNNFYPREAKVQWKVDNALQSGNSQESVTEQDSKDSTYSLSSTLTLSKADYEKHKVYACEVTHQGLSSPVTKSFNRGEC
notes: One-arm antibody; substitution position in Kabat numbering; also called L chain altered form, Kabat 94 V to P
B2: GLS3000 G89Q one-amino acid altered one-arm antibody (CE115HA000-pE22Hh / Kn010G3 / GLS3000 G89Q-kappa) (antibody, human IgG1, kappa, L234A L235A, N297A, name in Kabat numbering)
heavy: QVQLVESGGGVVQPGRSLRLSCAASGFTFSNAWMHWVRQAPGKGLEWVAQIKAKSNNYATYYAESVKGRFTISRDDSKNSLYLQMNSLKTEDTAVYYCRYVHYGAYYGVDAWGQGTTVTVSSASTKGPSVFPLAPSSKSTSGGTAALGCLVKDYFPEPVTVSWNSGALTSGVHTFPAVLQSSGLYSLSSVVTVPSSSLGTQTYICNVNHKPSNTKVDKKVEPKSCDKTHTCPPCPAPEAAGGPSVFLFPPKPKDTLMISRTPEVTCVVVDVSHEDPEVKFNWYVDGVEVHNAKTKPREEQYASTYRVVSVLTVLHQDWLNGKEYKCKVSNKALPAPIEKTISKAKGQPREPQVYTLPPSRCELTKNQVSLSCAVKGFYPSDIAVEWESNGQPENNYKTTPPVLDSDGSFFLVSKLTVDKSRWQQGNVFSCSVMHEALHNHYTQKSLSLSPDYKDDDDK
chain: EPKSSDKTHTCPPCPAPELLGGPSVFLFPPKPKDTLMISRTPEVTCVVVDVSHEDPEVKFNWYVDGVEVHNAKTKPREEQYNSTYRVVSVLTVLHQDWLNGKEYKCKVSNKALPAPIEKTISKAKGQPREPQVCTLPPSRDELTKNQVSLWCLVKGFYPSDIAVEWESNGQPENNYKTTPPVLDSDGSFFLYSKLTVDKSRWQQGNVFSCSVMHEALHNRYTQKSLSLSP
light: DIVMTQSPLSLPVTPGEPASISCRSSQSLVHSNRNTYLHWYQQKPGQAPRLLIYKVSNRFSGVPDRFSGSGSGTDFTLKISRVEAEDVGVYYCQQGTQVPYTFGQGTKLEIKRTVAAPSVFIFPPSDEQLKSGTASVVCLLNNFYPREAKVQWKVDNALQSGNSQESVTEQDSKDSTYSLSSTLTLSKADYEKHKVYACEVTHQGLSSPVTKSFNRGEC
notes: One-arm antibody; substitution position in Kabat numbering; also called L chain altered form, Kabat 89 G to Q
B3: GLS3000 G89T one-amino acid altered one-arm antibody (CE115HA000-pE22Hh / Kn010G3 / GLS3000 G89T-kappa) (antibody, human IgG1, kappa, L234A L235A, N297A, name in Kabat numbering)
heavy: QVQLVESGGGVVQPGRSLRLSCAASGFTFSNAWMHWVRQAPGKGLEWVAQIKAKSNNYATYYAESVKGRFTISRDDSKNSLYLQMNSLKTEDTAVYYCRYVHYGAYYGVDAWGQGTTVTVSSASTKGPSVFPLAPSSKSTSGGTAALGCLVKDYFPEPVTVSWNSGALTSGVHTFPAVLQSSGLYSLSSVVTVPSSSLGTQTYICNVNHKPSNTKVDKKVEPKSCDKTHTCPPCPAPEAAGGPSVFLFPPKPKDTLMISRTPEVTCVVVDVSHEDPEVKFNWYVDGVEVHNAKTKPREEQYASTYRVVSVLTVLHQDWLNGKEYKCKVSNKALPAPIEKTISKAKGQPREPQVYTLPPSRCELTKNQVSLSCAVKGFYPSDIAVEWESNGQPENNYKTTPPVLDSDGSFFLVSKLTVDKSRWQQGNVFSCSVMHEALHNHYTQKSLSLSPDYKDDDDK
chain: EPKSSDKTHTCPPCPAPELLGGPSVFLFPPKPKDTLMISRTPEVTCVVVDVSHEDPEVKFNWYVDGVEVHNAKTKPREEQYNSTYRVVSVLTVLHQDWLNGKEYKCKVSNKALPAPIEKTISKAKGQPREPQVCTLPPSRDELTKNQVSLWCLVKGFYPSDIAVEWESNGQPENNYKTTPPVLDSDGSFFLYSKLTVDKSRWQQGNVFSCSVMHEALHNRYTQKSLSLSP
light: DIVMTQSPLSLPVTPGEPASISCRSSQSLVHSNRNTYLHWYQQKPGQAPRLLIYKVSNRFSGVPDRFSGSGSGTDFTLKISRVEAEDVGVYYCTQGTQVPYTFGQGTKLEIKRTVAAPSVFIFPPSDEQLKSGTASVVCLLNNFYPREAKVQWKVDNALQSGNSQESVTEQDSKDSTYSLSSTLTLSKADYEKHKVYACEVTHQGLSSPVTKSFNRGEC
notes: One-arm antibody; substitution position in Kabat numbering; also called L chain altered form, Kabat 89 G to T
B4: GLS3000 G89P one-amino acid altered one-arm antibody (CE115HA000-pE22Hh / Kn010G3 / GLS3000 G89P-kappa) (antibody, human IgG1, kappa, L234A L235A, N297A, name in Kabat numbering)
heavy: QVQLVESGGGVVQPGRSLRLSCAASGFTFSNAWMHWVRQAPGKGLEWVAQIKAKSNNYATYYAESVKGRFTISRDDSKNSLYLQMNSLKTEDTAVYYCRYVHYGAYYGVDAWGQGTTVTVSSASTKGPSVFPLAPSSKSTSGGTAALGCLVKDYFPEPVTVSWNSGALTSGVHTFPAVLQSSGLYSLSSVVTVPSSSLGTQTYICNVNHKPSNTKVDKKVEPKSCDKTHTCPPCPAPEAAGGPSVFLFPPKPKDTLMISRTPEVTCVVVDVSHEDPEVKFNWYVDGVEVHNAKTKPREEQYASTYRVVSVLTVLHQDWLNGKEYKCKVSNKALPAPIEKTISKAKGQPREPQVYTLPPSRCELTKNQVSLSCAVKGFYPSDIAVEWESNGQPENNYKTTPPVLDSDGSFFLVSKLTVDKSRWQQGNVFSCSVMHEALHNHYTQKSLSLSPDYKDDDDK
chain: EPKSSDKTHTCPPCPAPELLGGPSVFLFPPKPKDTLMISRTPEVTCVVVDVSHEDPEVKFNWYVDGVEVHNAKTKPREEQYNSTYRVVSVLTVLHQDWLNGKEYKCKVSNKALPAPIEKTISKAKGQPREPQVCTLPPSRDELTKNQVSLWCLVKGFYPSDIAVEWESNGQPENNYKTTPPVLDSDGSFFLYSKLTVDKSRWQQGNVFSCSVMHEALHNRYTQKSLSLSP
light: DIVMTQSPLSLPVTPGEPASISCRSSQSLVHSNRNTYLHWYQQKPGQAPRLLIYKVSNRFSGVPDRFSGSGSGTDFTLKISRVEAEDVGVYYCPQGTQVPYTFGQGTKLEIKRTVAAPSVFIFPPSDEQLKSGTASVVCLLNNFYPREAKVQWKVDNALQSGNSQESVTEQDSKDSTYSLSSTLTLSKADYEKHKVYACEVTHQGLSSPVTKSFNRGEC
notes: One-arm antibody; substitution position in Kabat numbering; also called L chain altered form, Kabat 89 G to P

Each binder was assayed against T1, CD3 epsilon homodimer protein (UniProt P07766 23-126) (assay: SPR Biacore T200, CD3 epsilon homodimer immobilised on CM4, one-arm antibody as analyte, single-cycle kinetics; reference unaltered GLS3000 antibody;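 note: CD3 epsilon homodimer attached to the CM4 chip via amine coupling, measured at 25 °C with HBS-EP+ as running buffer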).
T1 construct: also called CD3 (CD3 epsilon)
T1 sequence (P07766 23-126): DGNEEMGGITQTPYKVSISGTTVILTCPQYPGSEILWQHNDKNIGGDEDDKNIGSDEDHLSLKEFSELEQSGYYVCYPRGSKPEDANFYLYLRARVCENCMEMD
Experimental: An appropriate amount of CD3 epsilon homodimer protein was immobilized onto Sensor chip CM4 (GE Healthcare Japan Corp.) by the amine coupling method. Then, the antibody having an appropriate concentration was injected thereto as an analyte and allowed to interact with the CD3 epsilon homodimer protein on the sensor chip. Then, the sensor chip was regenerated by the injection of 10 mmol/L glycine-HCl (pH 1.5). The assay was conducted at 25 degrees C., and HBS-EP+(GE Healthcare Japan Corp.) was used as a running buffer. […] Each parameter was calculated using Biacore T200 Evaluation Software (GE Healthcare Japan Corp.).
Specifically, when the amount of the GLS3000-containing antibody bound was defined as X and the amount of the L chain one-amino acid altered form bound was defined as Y, a value of Z (ratio of amounts bound)=Y/X was used.

Binder	dissociation constant KD(M) ratio of L chain altered form to GLS3000 [ratio]
B1	1.1
B2	2.11
B3	1.1
B4	1.8
